Source: CN113956352A (FUJIAN MEDICAL UNIV UNION HOSPITAL, dated 2022)

Experiments:
[1] = target: SARS-CoV-2 RBD蛋白 (ELISA coating antigen) (SARS-CoV-2, UniProt P0DTC2 319-541); assay: ELISA, plate coated with SARS-CoV-2 RBD, antibody 1 μg/mL, goat anti-human IgG-HRP
[2] = target: SARS-CoV-2 S-RBD蛋白 (Acrobiosystems, cat.# SPD-C52H3) (SARS-CoV-2, UniProt P0DTC2 319-537); assay: SPR (Biacore 8K), antibody captured on Protein A chip, S-RBD 50-0.78125 nM, 1:1 Langmuir fit
[3] = target: SARS-CoV-2 S蛋白 (刺突糖蛋白) (SARS-CoV-2, UniProt P0DTC2 14-1273); assay: cell-based or functional assay

B1: R157 (antibody, V domains shown)
VH: QVQLVQSGAEVKKPGSSVKVSCKASGGTFSSYAINWVRQAPGQGLEWMGGIIPILGIANYAQKFQGRVTITADKSTSTAYMELSSLRSEDTAVYYCAREQGYSGSGANYYFDYWGQGTLVTVSS
VL: QSVLTQPPSVSGAPGQRVTVSCTGSSSNIGAGYDVHWYQQLPGTAPKLLIYGNTNRPSGVPDRFSGSKSGTSASLAITGLQAEDEADYYCQSYDSSLSDVVFGGGTQLTVL
- ELISA值 (OD450) [1]: 1.14 OD450

B2: R14 (antibody, V domains shown)
VH: QVQLVQSGAEVKKPGSSVKVSCKASGGTFSSYTISWVRQAPGQGLEWMGRIIPILGIANYAQKFQGRVTITADKSTSTAYMELSSLRSEDTAVYYCAREIGYSSSGSNYYMDVWGKGTTVTVSS
VL: QSVLTQPPSVSGAPGQRVTISCTGSSSNIGAGYDVHWYQQLPGTAPKLLIYGNSNRPSGVPDRFSGSKSGTSASLAITGLQAEDEADYYCQSYDSSLSGVVFGGGTKLTVL
- ELISA值 (OD450) [1]: 1.01 OD450

B3: R44 (antibody, V domains shown)
VH: QVQLVQSGGGLVQPGGSLRLSCAASEITVSSNYMSWVRQAPGKGLEWVSVLYSGGSTDYADSVKGRFTISRDNSKNTLYLQMNSLRAEDTAVYYCAREVYGMDVWGQGTTVTVSS
VL: DIVLTQTPSSLSASVGDRVTITCRASQGISSYLAWYQQKPGKAPKLLIYAASTLQSGVPSRFSGSGSGTDFTLTISSLQPEDFATYYCQELSTYPVTFGQGTKVEIK
- ELISA值 (OD450) [1]: 1.17 OD450
- Kd [2]: 0.205 nM
- 假病毒的抑制率IC50 (Luciferase RLU, Spike假病毒, 293T-ACE2细胞) [3]: 1.6 µg/mL

B4: R29 (antibody, V domains shown)
VH: EVQLLESGGGLVQPGRSLRLSCAASGFTFDDYGIHWVRQAQGKGLEWVSGISWNSGTIGYADSVKGRFTISRDNAKNSLYLQMNSLRAEDTALYYCAKDRGGKLRWYEREEYYFDYWGQGTLVTVSS
VL: SYVLTQPPSVSVAPGQTAKITCGGNDIGRKSVYWYQQKPGQAPILVIYYSSDRPSGIPDRFSGSNSGNTATLTIGRVEAGDEADYYCQVWDSTSDHVIFGGGTKLTVL
- ELISA值 (OD450) [1]: 1.06 OD450
